B1: Wild type: Wild-type jellyfish apoaequorin gene SEQ ID NO: 2 with HA1 epitope in pcDNA3, used as control (nucleic acid, listed as Aequorea victoria)
DNA: ATGAAGCTTACATCAGACTTCGACAACCCAAGATGGATTGGACGACACAAGCATATGTTCAATTTCCTTGATGTCAACCACAATGGAAAAATCTCTCTTGACGAGATGGTCTACAAGGCATCTGATATTGTCATCAATAACCTTGGAGCAACACCTGAGCAAGCCAAACGACACAAAGATGCTGTAGAAGCCTTCTTCGGAGGAGCTGGAATGAAATATGGTGTGGAAACTGATTGGCCTGCATATATTGAAGGATGGAAAAAATTGGCTACTGATGAATTGGAGAAATACGCCAAAAACGAACCAACGCTCATCCGTATATGGGGTGATGCTTTGTTTGATATCGTTGACAAAGATCAAAATGGAGCCATTACACTGGATGAATGGAAAGCATACACCAAAGCTGCTGGTATCATCCAATCATCAGAAGATTGCGAGGAAACATTCAGAGTGTGCGATATTGATGAAAGTGGACAACTCGATGTTGATGAGATGACAAGACAACATTTAGGATTTTGGTACACCATGGATCCTGCTTGCGAAAAGCTCTACGGTGGAGCTGTCCCCTAA
modifications: HA1 epitope fused, in pcDNA3
B2: Codon optimised: Codon-optimised (humanised) apoaequorin coding sequence SEQ ID NO: 3 with HA1 epitope, in pcDNA3 expression plasmid (nucleic acid)
DNA: ATGAAGCTGACCCCCGACTTCGACAACCCCAAGTGGATCGGCCGCCACAAGCACATGTTCAACTTCCTGGACGTGAACCACAACGGCCGCATCAGCCTGGACGAGATGGTGTACAAGGCCAGCGACATCGTGATCAACAACCTGGGCGCCACCCCCGAGCAGGCCAAGCGCCACAAGGACGCCGTGGAGGCCTTCTTCGGCGGCGCCGGCATGAAGTACGGCGTGGAGACGGAGTGGCCCGAGTACATCGAGGGCTGGAAGCGCCTGGCCTCCGAGGAACTGAAGCGCTACAGCAAGAACCAGATCACCCTGATCCGCCTGTGGGGCGACGCCCTGTTCGACATCATCGACAAGGACCAGAACGGCGCCATCTCCCTGGATGAGTGGAAGGCCTACACCAAGTCCGTCGGCATCATCCAGTCCTCCGAGGACTGCGAGGAGACGTTCCGCGTGTGCGACATCGACGAGAGCGGCCAGCTGGACGTGGACGAGATGACCCGCCAGCACCTGGGCTTCTGGTACACCATGGACCCCGCCTGCGAGAAGCTGTACGGCGGCGCCGTGCCCTAA
modifications: HA1 epitope fused, in pcDNA3; humanised apoaequorin

Legend:
[1] = tested on: HEK293 cells; experiment: Aequorin luminescence (calcium flux) after Ionomycin stimulation of transiently transfected cells; assay type: cell-based; details: for Peak Relative Light Units (RLU) following Ionomycin Stimulation: HEK293 cells transiently transfected, 48 hours post transfection; for fold increase in RLU relative to wild type aequorin: number in parenthesis; for fold increase in luminescent output (RLU) with the codon optimised aequorin: text summary over 1 and 2 μM CaCl2, Ionomycin stimulation, versus wild type
Protocol: CHOK1 and Phoenix (HEK293 derived) cells were grown in Ham's F12 and DMEM respectively. The medium was supplemented with10% foetal calf serum, 2 mM glutamine, penicillin and streptomycin 100 μg/ml.
Cells were seeded in Costar 6 well plates at a density of 5×10^5 18-24 hours prior to transfection. On the day of transfection the cells were 85-90% confluent. Plasmids, cytaeqHA1(9aa)pcDNA3#2 and hucytaeqHA(9aa)pcDNA3#20, were transfected into the cells using Lipofectamine Plus reagents. A co-transfection with EGFP (Clontech) allowed transfection variation between wells to be ascertained. A modification to the standard protocol from Life Technologies was used. In summary, 2 μg of DNA (1 μg of each for co-transfections) diluted in 400 μl of HamsF12+12 μl lipofectamnine plus reagent was incubated for 15 minutes at room temperature. 8 μl of Lipofectamine reagent +400 μl of HamsF12 medium was also incubated for 15 minutes at room temperature. The two mixtures were combined and incubated for a further 15 minutes before being aspirated onto the cells containing 1.6 mls of Ham's F12 medium. The plates were incubated for 3 hours at 37° C. 5% CO2. The transfection reagents were replaced with Ham's F12 complete medium and the cells incubated for 24 hours. At 24 hours the cells were transferred to 96 well plates. 48 hours post transfection the 96 wells were rinsed in PBS and replaced with 50 μl of DMEM (without phenol red) containing 1% heat inactivated FCS and 2.5 μm hcp coelenterazine. The cells were incubated at 37° C. 5% CO2 for 3 hours. The wells were aspirated of the coelenterazine mix and replaced with 175 μl of PBS containing either 1 μM or 2 μM CaCl2. The plates were transferred to Tropix TR717 luminometer for stimulation. 2 μM of ionomycin (25 μl), a calcium ionophore, was injected into the wells and the reaction recorded over 60 seconds. 1:
Numbers in parenthesis represent the fold increase in RLU relative to wild type aequorin.

[2] = tested on: HEK 293 cells; experiment: Immunoblotting of HA-tagged aequorin expression (3F10 antibody, pixel quantification); assay type: cell-based; details: western blot against HA epitope; HEK 293 lysates 48 hours post transfection; ImageQuant pixel quantification
Protocol: Expression of recombinant protein was verified by immuoblotting using Anti-HA-Peroxidase, High Affinity (3F10) monoclonal antibody (Roche). This antibody recognizes the HA peptide sequence […] derived from the […] hemagglutinin protein (Kolodziej &Young, Methods Enzymol. 194:508-511, […]). HEK 293 cells were transiently transfected with the codon optimised and the wild type aequorin constructs. Cell lysates were prepared 48 hours post transfection, proteins (130 μg) separated by SDS-PAGE electrophoresis, transferred to nylon membrane and stained with a 1:500 dilution of 3F10 antibody. Protein expression was quantitated using pixel quantification in ImageQuant software (Molecular Dynamics) and indicated a 8-fold increase in expression of cythuAEQ over cytAEQ.

| Molecule | Peak Relative Light Units (RLU) following Ionomycin Stimulation ([1]; 1 μM CaCl2) [RLU] | Peak Relative Light Units (RLU) following Ionomycin Stimulation ([1]; 2 μM CaCl2) [RLU] | fold increase in RLU relative to wild type aequorin ([1]; 1 μM CaCl2) [fold] | fold increase in RLU relative to wild type aequorin ([1]; 2 μM CaCl2) [fold] | fold increase in luminescent output (RLU) with the codon optimised aequorin ([1]; listed as codon optimised aequorin) | fold increase in luminescent output (RLU) with the codon optimised aequorin ([1]; listed as codon-optimised sequence) [fold] | fold increase in expression over non-humanised (wild type) aequorin [2] [fold] |
| --- | --- | --- | --- | --- | --- | --- | --- |
| B1 | 944 | 734 | – | – | – | – | – |
| B2 | 18008 | 15561 | 19 | 21 | 19-21 fold | > 20 | ~8 |
